Reference: PMC2953525, “Subtle Alterations in PCNA-Partner Interactions Severely Impair DNA Replication and Repair” (PLoS Biology, 2010)

What was measured:
Rad30 PIP peptide = assay: SPR analysis of PCNA binding to PIP peptide; design: species or system yeast
Excerpt: To quantify differences in binding affinities of the PCNA mutants relative to the WT, we characterized four PCNA mutants with increased affinity for PIP peptides derived from Rad30, Pol32, Msh6, and Ung1 partners using SPR. These mutants were overexpressed in E. coli, purified by affinity chromatography, and immobilized on an SPR sensor chip for binding characterization. SPR binding analysis enabled direct and sensitive measurement of interaction affinities relative to the Y2H system and indicated an up to 8-fold increase in binding affinity for the different PIP peptides, relative to WT PCNA (Table 1). Such analysis allowed the detection of a significant decrease in the Rad30 PIP peptide dissociation rate in the Pol30-Rad30E9p mutant relative to the WT, indicating a ∼9-fold increase in the lifetime of the PCNA-Rad30 complex (see Table 1). Collectively the ELISA, Y2H, and SPR assays validated and quantified the increase in mutant PCNA binding affinities, relative to WT PCNA.
Protein interaction assays were carried out using the ProteOn XPR36 (Bio-Rad) instrument. WT or PCNA mutants (0.4 to 5.2 fmol) were immobilized on the surface of a GLM sensor chip by a carbodiimide-activated succinimide-coupling method, as specified by the manufacturer. All SPR experiments were performed by flowing 150 µl of the target peptide at a flow rate of 30 µl/min onto the PCNA-bound chip. Different concentrations (5–5,000 nM) of PIP peptides (Table 1) were injected over the PCNA chip, and binding parameters were determined using ProteOn XPR36 software (Bio-Rad). The ligand (PCNA) and analyte (peptide) buffers were PBST and 150 mM NaCl, 1 mM EDTA, 0.01% Tween-80, 30 mM Hepes, pH 7.5, respectively.

Eco1 = assay: Yeast two hybrid (Y2H) analysis of PCNA-partner interaction; assay type: binding; design: key: ++: major increase in growth; +: moderate increase in growth; similar growth as the WT PCNA-expressing cells; -: minor decrease in growth; --: moderate decrease in growth; ---: major decrease in growth; details: spotting onto selective agar plates; PCNA fused to AD, partner to BD
Cdc9 = assay: as above; assay type: binding; design: key: ++: major increase in growth; +: moderate increase in growth; similar growth as the WT PCNA-expressing cells; -: minor decrease in growth; --: moderate decrease in growth; ---: major decrease in growth; details: spotting onto selective agar plates; PCNA fused to AD, partner to BD
Cac1 = assay: as above; assay type: binding; design: key: ++: major increase in growth; +: moderate increase in growth; similar growth as the WT PCNA-expressing cells; -: minor decrease in growth; --: moderate decrease in growth; ---: major decrease in growth; details: spotting onto selective agar plates; PCNA fused to AD, partner to BD
Apn2 = assay: as above; assay type: binding; design: key: ++: major increase in growth; +: moderate increase in growth; similar growth as the WT PCNA-expressing cells; -: minor decrease in growth; --: moderate decrease in growth; ---: major decrease in growth; details: spotting onto selective agar plates; PCNA fused to AD, partner to BD
Rfc1 = assay: as above; assay type: binding; design: key: ++: major increase in growth; +: moderate increase in growth; similar growth as the WT PCNA-expressing cells; -: minor decrease in growth; --: moderate decrease in growth; ---: major decrease in growth; details: spotting onto selective agar plates; PCNA fused to AD, partner to BD
Msh3 = assay: as above; assay type: binding; design: key: ++: major increase in growth; +: moderate increase in growth; similar growth as the WT PCNA-expressing cells; -: minor decrease in growth; --: moderate decrease in growth; ---: major decrease in growth; details: spotting onto selective agar plates; PCNA fused to AD, partner to BD
Rrm3 = assay: as above; assay type: binding; design: key: ++: major increase in growth; +: moderate increase in growth; similar growth as the WT PCNA-expressing cells; -: minor decrease in growth; --: moderate decrease in growth; ---: major decrease in growth; details: spotting onto selective agar plates; PCNA fused to AD, partner to BD

Row | Molecule | Kd (Rad30 PIP peptide; PCNA immobilized, peptide 5-5,000 nM, ProteOn XPR36, read-out: Binding affinity for Rad30 PIP peptide (SPR)) | off-rate (kd) of the Rad30 PIP peptide (Rad30 PIP peptide; SPR) | Y2H growth relative to WT PCNA-expressing strain: Eco1 (Eco1) | Y2H growth relative to WT PCNA-expressing strain: Cdc9 (Cdc9) | Y2H growth relative to WT PCNA-expressing strain: Cac1 (Cac1) | Y2H growth relative to WT PCNA-expressing strain: Apn2 (Apn2) | Y2H growth relative to WT PCNA-expressing strain: Rfc1 (Rfc1) | Y2H growth relative to WT PCNA-expressing strain: Msh3 (Msh3) | Y2H growth relative to WT PCNA-expressing strain: Rrm3 (Rrm3) | fold increase in the lifetime of the PCNA-Rad30 complex (Rad30 PIP peptide; SPR, from Rad30 PIP peptide dissociation rate, relative to the WT) | Fold increase in binding affinity for Rad30 PIP peptide relative to WT PCNA (SPR) (Rad30 PIP peptide; footnote d, PCNA immobilized on GLM chip, peptide 5-5,000 nM)
1 | POL30: wild-type yeast PCNA (POL30), IDCL sequence DIDADFLKIEEL | 170 nM | 0.03 s⁻¹ |  |  |  |  |  |  |  |  | 
2 | pol30-Rad30E9: PCNA mutant evolved for Rad30, IDCL sequence DNDWDFLKIDEL (protein, left off: Gal4 activation domain, end not stated, kept) MLEAKFEEASLFKRIIDGFKDCVQLVNFQCKEDGIIAQAVDDSRVLLVSLEIGVEAFQEYRCDHPVTLGMDLTSLSKILRCGNNTDTLTLIADNTPDSIILLFEDTKKDRIAEYSLKLMDNDWDFLKIDELQYDSTLSLPSSEFSKIVRDLSQLSDSINIMITKETIKFVADGDIGSGSVIIKPFVDMEHPETSIKLEMDQPVDLTFGAKYLLDIIKGSSLSDRVGIRLSSEAPALFQFDLKSGFLQFFLAPKFNDEE |  | 0.00321 s⁻¹ | WT | WT | WT | WT | WT | WT | WT | ~9 fold | 8.5 fold
3 | pol30-Msh6E2: PCNA mutant evolved for Msh6, IDCL sequence DYDRDMLKISEL (protein, left off: Gal4 activation domain, end not stated, kept) MLEAKFEEASLFKRIIDGFKDCVQLVNFQCKEDGIIAQAVDDSRVLLVSLEIGVEAFQEYRCDHPVTLGMDLTSLSKILRCGNNTDTLTLIADNTPDSIILLFEDTKKDRIAEYSLKLMDYDRDMLKISELQYDSTLSLPSSEFSKIVRDLSQLSDSINIMITKETIKFVADGDIGSGSVIIKPFVDMEHPETSIKLEMDQPVDLTFGAKYLLDIIKGSSLSDRVGIRLSSEAPALFQFDLKSGFLQFFLAPKFNDEE |  |  | WT | WT | WT | WT | WT | + | WT |  | 
